The target of the assay is T1, TLR10 (Homo sapiens, UniProt Q9BXR5).
T1 sequence (Q9BXR5 20-576): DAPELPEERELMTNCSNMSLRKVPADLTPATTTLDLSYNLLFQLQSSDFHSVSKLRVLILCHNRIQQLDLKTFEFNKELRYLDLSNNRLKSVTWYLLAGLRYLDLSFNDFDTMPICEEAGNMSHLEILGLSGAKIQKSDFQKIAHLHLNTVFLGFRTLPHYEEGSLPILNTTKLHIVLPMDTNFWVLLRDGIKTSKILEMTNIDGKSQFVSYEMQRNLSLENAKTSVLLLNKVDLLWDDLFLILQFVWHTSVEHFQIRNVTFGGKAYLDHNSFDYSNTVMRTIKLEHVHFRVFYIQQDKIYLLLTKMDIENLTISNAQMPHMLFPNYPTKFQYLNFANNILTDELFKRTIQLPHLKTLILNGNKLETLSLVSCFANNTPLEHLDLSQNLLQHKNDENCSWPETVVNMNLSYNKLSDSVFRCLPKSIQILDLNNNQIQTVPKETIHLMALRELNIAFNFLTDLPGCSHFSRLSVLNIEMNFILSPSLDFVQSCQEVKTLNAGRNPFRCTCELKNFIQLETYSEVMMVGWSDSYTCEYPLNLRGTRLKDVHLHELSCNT
The experiment in a line: mRNA display affinity selection against TLR10, NGS abundance. The assay is classed as binding. Also on record: Chimera protein (extracellular domain, amino acid 20-576;); Fc (chimera); purchased R&D system #6619-TR-050. Conditions: Top100 selection hits, NGS.

Where no end group is shown, it is not given here.

With TILFSLQNVRAF, the Library fraction is 0.00137 (TLR10 selection pulldown (+)) and 0.0033 (TLR10 selection pulldown (-)). This sequence also showed a Raw reads (TLR10 selection pulldown (+)) of 134 and a Raw reads (TLR10 selection pulldown (-)) of 394.

Where the note is “TLR10 selection pulldown (+)”, LGNVYIRSS displayed a Library fraction of 0.00075 and a Raw reads of 73.

Where the note is “TLR10 selection pulldown (-)”, SLELSRVNVVIH gave a Library fraction of 0.00163 and a Raw reads of 194.

Where the note is “TLR10 selection pulldown (-)”, SVDFGQVVIH had a Library fraction of 0.00054 and a Raw reads of 65.

With IGKVYVHSS, under “TLR10 selection pulldown (-)”, the Library fraction worked out at 0.00092 and the Raw reads was determined as 110.

As for SILFPHQQKLLF, under “TLR10 selection pulldown (+)”, the Library fraction turned out to be 0.00044 and the Raw reads is recorded as 43.

Under “TLR10 selection pulldown (+)”, SIEGMHVVIV registered a Library fraction of 0.00022 and a Raw reads of 21.

For the setting “TLR10 selection pulldown (-)”, SKIIWSNQAIRG had a Library fraction of 0.007 and a Raw reads of 798.

For AVIVWAKQGIKG, for the setting “TLR10 selection pulldown (+)”, the Library fraction turned out to be 0.0006 and the Raw reads is reported as 58.

For the setting “TLR10 selection pulldown (+)”, GDLRGNVCMWL had a Library fraction of 0.00021 and a Raw reads of 20.

Turning to ALELKHVVVV, under “TLR10 selection pulldown (+)”, the Library fraction was determined as 0.00049 and the Raw reads is listed as 48.

Regarding SNVIYARQHIIG, under “TLR10 selection pulldown (+)”, the Library fraction amounted to 0.0005 and the Raw reads was 49.

Where the note is “TLR10 selection pulldown (-)”, IGLVRVVSS had a Library fraction of 0.00658 and a Raw reads of 785.

Regarding TMQFPLQRRMAI, under “TLR10 selection pulldown (+)”, the Library fraction is reported as 0.00468 and the Raw reads came to 456. Besides, for the setting “TLR10 selection pulldown (-)”, the Library fraction amounted to 0.002 and the Raw reads is listed as 241.

Turning to SIVFHLTNKMAF, under “TLR10 selection pulldown (+)”, the Library fraction came out at 0.004 and the Raw reads is recorded as 391. For the setting “TLR10 selection pulldown (-)”, this sequence showed a Library fraction of 0.004 and a Raw reads of 462.

Turning to CITFQLTRKVAF (not fully specified), under “TLR10 selection pulldown (-)”, the Library fraction is listed as 0.00554 and the Raw reads amounted to 661.

Where the note is “TLR10 selection pulldown (-)”, TLELKAIVFH registered a Library fraction of 0.00044 and a Raw reads of 52.

With SIEFRRMRAIAY, under “TLR10 selection pulldown (-)”, the Library fraction is 0.00067 and the Raw reads came to 80.

For the setting “TLR10 selection pulldown (+)”, TYWKACAMSHIP registered a Library fraction of 0.00237 and a Raw reads of 231. Where the note is “TLR10 selection pulldown (-)”, the Library fraction is given as 0.00056 and the Raw reads was 67.

For the setting “TLR10 selection pulldown (-)”, TMMFPHQRKLAF displayed a Library fraction of 0.009 and a Raw reads of 1056.

For the setting “TLR10 selection pulldown (+)”, STLIYKLQCILG came in with a Library fraction of 0.0008 and a Raw reads of 78.

Under “TLR10 selection pulldown (-)”, ASFVIGQLLVN registered a Library fraction of 0.00055 and a Raw reads of 66.

For the setting “TLR10 selection pulldown (-)”, AEIHAWGLRI displayed a Library fraction of 0.00117 and a Raw reads of 139.

For SMLVWKGQSIRG, the Library fraction is, setting by setting: (TLR10 selection pulldown (+)) 0.004; (TLR10 selection pulldown (-)) 0.002. The Raw reads stood at 408 (TLR10 selection pulldown (+)) and 248 (TLR10 selection pulldown (-)).

Regarding RNPYSGNIAI, for the setting “TLR10 selection pulldown (+)”, the Library fraction is reported as 0.00557 and the Raw reads is on record as 543. For the setting “TLR10 selection pulldown (-)”, this sequence showed a Library fraction of 0.00067 and a Raw reads of 80.

For the sequence IGNVCIRSS, for the setting “TLR10 selection pulldown (-)”, the Library fraction was 0.0008 and the Raw reads was 96.

Regarding ALKFELLRKVAF, under “TLR10 selection pulldown (-)”, the Library fraction stood at 0.00278 and the Raw reads was determined as 332.

For SIMFALQQKLLF, the Library fraction was 0.004 (TLR10 selection pulldown (+)) and 0.00189 (TLR10 selection pulldown (-)). In addition, the Raw reads runs as follows: (TLR10 selection pulldown (+)) 389; (TLR10 selection pulldown (-)) 226.

Consider VQLHRWGLRM, for which, where the note is “TLR10 selection pulldown (+)”, the Library fraction was 0.00032 and the Raw reads is on record as 31.

Where the note is “TLR10 selection pulldown (+)”, ALLIKQTNMLYC came in with a Library fraction of 0.023 and a Raw reads of 2215. Where the note is “TLR10 selection pulldown (-)”, this sequence yielded a Library fraction of 0.018 and a Raw reads of 2188.

For the setting “TLR10 selection pulldown (+)”, STKNQYGGWSPA came in with a Library fraction of 0.00034 and a Raw reads of 33.

Where the note is “TLR10 selection pulldown (-)”, CIIFVRQNKCAF gave a Library fraction of 0.00053 and a Raw reads of 63.

In the case of IGRVMIKSS, under “TLR10 selection pulldown (+)”, the Library fraction is recorded as 0.008 and the Raw reads is 778. Under “TLR10 selection pulldown (-)”, this sequence registered a Library fraction of 0.007 and a Raw reads of 870.

Consider MIRMDRLRVL, for which, under “TLR10 selection pulldown (+)”, the Library fraction came to 0.00023 and the Raw reads is recorded as 22.

Under “TLR10 selection pulldown (+)”, GCLHGNVPVYY showed a Library fraction of 0.00224 and a Raw reads of 218. Under “TLR10 selection pulldown (-)”, this sequence registered a Library fraction of 0.00272 and a Raw reads of 324.

Where the note is “TLR10 selection pulldown (+)”, AIRFSNVLAL came in with a Library fraction of 0.00022 and a Raw reads of 21.

On to SMLFRLANKIAF, for which, under “TLR10 selection pulldown (-)”, the Library fraction is listed as 0.040 and the Raw reads is listed as 4812.

As for STIVFTFQCIKG, the Library fraction (TLR10 selection pulldown (+)) worked out at 0.012 and the Library fraction (TLR10 selection pulldown (-)) worked out at 0.008. The Raw reads came out at 1142 (TLR10 selection pulldown (+)) and 919 (TLR10 selection pulldown (-)).

Where the note is “TLR10 selection pulldown (-)”, SVVVWHAQPIMG registered a Library fraction of 0.006 and a Raw reads of 714.

With ALRFPHLGMMAF, for the setting “TLR10 selection pulldown (+)”, the Library fraction came to 0.00026 and the Raw reads is given as 25.

SLETSHLVIY: for the setting “TLR10 selection pulldown (+)”, the Library fraction is given as 0.00035 and the Raw reads stood at 34.

Where the note is “TLR10 selection pulldown (+)”, CLGISNRIVVV gave a Library fraction of 0.00017 and a Raw reads of 17.

With GLVINKRWYVHL, the Library fraction is on record as 0.00058 (TLR10 selection pulldown (+)) and 0.00054 (TLR10 selection pulldown (-)). Further, the Raw reads turned out to be 57 (TLR10 selection pulldown (+)) and 64 (TLR10 selection pulldown (-)).

Where the note is “TLR10 selection pulldown (+)”, ICFVYVRSS displayed a Library fraction of 0.00028 and a Raw reads of 27.

Under “TLR10 selection pulldown (+)”, MNPYSGNIVV registered a Library fraction of 0.00022 and a Raw reads of 21.

Where the note is “TLR10 selection pulldown (+)”, SIETTNMVLL displayed a Library fraction of 0.00031 and a Raw reads of 30.

For TMCFTFSKMVAF, under “TLR10 selection pulldown (-)”, the Library fraction turned out to be 0.00058 and the Raw reads worked out at 69.

Turning to ASINRYGGNAAS, the Library fraction reads like this: (TLR10 selection pulldown (+)) 0.077; (TLR10 selection pulldown (-)) 0.042. Also, the Raw reads (TLR10 selection pulldown (+)) was found to be 7526 and the Raw reads (TLR10 selection pulldown (-)) is given as 4957.

Take CVFFPHLNKIAL: under “TLR10 selection pulldown (-)”, the Library fraction was determined as 0.022 and the Raw reads is reported as 2623.

For STIVFKHQQISG, for the setting “TLR10 selection pulldown (+)”, the Library fraction turned out to be 0.00018 and the Raw reads is on record as 18.

Consider SLELKHIVFH, for which, under “TLR10 selection pulldown (-)”, the Library fraction is 0.00222 and the Raw reads is reported as 265.

Under “TLR10 selection pulldown (+)”, SVMNVFGGNAAT yielded a Library fraction of 0.00029 and a Raw reads of 28.

Turning to AIYYSRLNKVAF, where the note is “TLR10 selection pulldown (+)”, the Library fraction was 0.00018 and the Raw reads was determined as 18.

For the setting “TLR10 selection pulldown (+)”, SLETNSVVWI came in with a Library fraction of 0.00021 and a Raw reads of 20.

Under “TLR10 selection pulldown (+)”, SNSNRYGGLITS returned a Library fraction of 0.045 and a Raw reads of 4431. For the setting “TLR10 selection pulldown (-)”, this sequence gave a Library fraction of 0.005 and a Raw reads of 582.

Regarding SMLLPMQRVVMF, under “TLR10 selection pulldown (+)”, the Library fraction is listed as 0.00018 and the Raw reads stood at 18.

For the setting “TLR10 selection pulldown (+)”, SIKFVFQGKLAI yielded a Library fraction of 0.00046 and a Raw reads of 45.

Where the note is “TLR10 selection pulldown (+)”, TLHFRRQNKIAY returned a Library fraction of 0.020 and a Raw reads of 1927. Besides, where the note is “TLR10 selection pulldown (-)”, the Library fraction is 0.011 and the Raw reads is 1314.

For the setting “TLR10 selection pulldown (+)”, RMSLNTRYIAF returned a Library fraction of 0.00031 and a Raw reads of 30.

Where the note is “TLR10 selection pulldown (+)”, SVIFNLLRQVAY had a Library fraction of 0.00017 and a Raw reads of 17.

As for RIETRCYVLH, for the setting “TLR10 selection pulldown (-)”, the Library fraction stood at 0.0006 and the Raw reads is listed as 72.

With SVSFPLQRKLVF, where the note is “TLR10 selection pulldown (+)”, the Library fraction was found to be 0.00065 and the Raw reads came out at 63.

Where the note is “TLR10 selection pulldown (-)”, IGKTYVASS showed a Library fraction of 0.00089 and a Raw reads of 106.

In the case of TIELTHAYLH, for the setting “TLR10 selection pulldown (-)”, the Library fraction is 0.00054 and the Raw reads was found to be 64.

Consider SMHYRFLCKIAF, for which, where the note is “TLR10 selection pulldown (-)”, the Library fraction was found to be 0.001 and the Raw reads is listed as 117.

For CESCCYVIDFEF, for the setting “TLR10 selection pulldown (-)”, the Library fraction was 0.00343 and the Raw reads was found to be 409.

Take CMIFHTQLKIAF: the Library fraction by setting is: (TLR10 selection pulldown (+)) 0.00053; (TLR10 selection pulldown (-)) 0.004. The Raw reads is, setting by setting: (TLR10 selection pulldown (+)) 52; (TLR10 selection pulldown (-)) 470.

Under “TLR10 selection pulldown (-)”, TFLGGNVRAWI displayed a Library fraction of 0.00088 and a Raw reads of 105.

For the setting “TLR10 selection pulldown (-)”, SMYFESLNKLAV returned a Library fraction of 0.00044 and a Raw reads of 52.

As for CVLVNNRYLVH, for the setting “TLR10 selection pulldown (+)”, the Library fraction is recorded as 0.00056 and the Raw reads worked out at 55.

Under “TLR10 selection pulldown (+)”, MMSRGMRWVL yielded a Library fraction of 0.00019 and a Raw reads of 19.

The values are drawn from publication PMC10683472, “Deep Learning-Driven Library Design for the De Novo Discovery of Bioactive Thiopeptides” (ACS Central Science, 2023).
